Experiment [1] concerns the target HA-RNF25 mutant lacking the Proline-Rich domain (human). Briefly: co-IP.
Experiment [2] deals with HA-RNF25 mutant lacking the RING+L+U5BR domains (human). Kind of experiment: co-IP.

For one substance, fold reduction of co-precipitated REV7 against wild-type HA-RNF25 results are on record in paper PMC11741350.

Sequence of REV7 (Q9UI95 whole entry): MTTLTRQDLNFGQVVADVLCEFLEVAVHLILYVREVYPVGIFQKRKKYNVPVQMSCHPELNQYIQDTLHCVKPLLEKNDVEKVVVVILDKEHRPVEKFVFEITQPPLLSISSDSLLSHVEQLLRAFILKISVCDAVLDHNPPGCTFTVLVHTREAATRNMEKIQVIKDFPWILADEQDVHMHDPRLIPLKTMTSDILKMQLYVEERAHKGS

In the case of “REV7 (from UniProt Q9UI95 1-211) (natural protein)”, the fold reduction of co-precipitated REV7 against wild-type HA-RNF25 in experiment [1] worked out at 3.13 fold; in experiment [2], 2.33 fold.
